Experimental findings from patent US20110195021A1 (IMMUNOGEN, published 2011) are described below.

Read-outs that look alike come from different tables or passages of the source.

The target in assay [1] is human CD20 (human) (UniProt P11836). Nature of the assay: cell-based or functional assay.
Assay [2] has the same target. Nature of the assay: flow cytometry on SU-DHL-4 cells. Background: In flow cytometry, cells or beads pass a laser one at a time.
Assay [3] deals with T1, human CD20 (human, UniProt P11836 1-297).
T1 construct: whole, on cells; also called wild type CD20; MS4A1
T1 sequence (looked up): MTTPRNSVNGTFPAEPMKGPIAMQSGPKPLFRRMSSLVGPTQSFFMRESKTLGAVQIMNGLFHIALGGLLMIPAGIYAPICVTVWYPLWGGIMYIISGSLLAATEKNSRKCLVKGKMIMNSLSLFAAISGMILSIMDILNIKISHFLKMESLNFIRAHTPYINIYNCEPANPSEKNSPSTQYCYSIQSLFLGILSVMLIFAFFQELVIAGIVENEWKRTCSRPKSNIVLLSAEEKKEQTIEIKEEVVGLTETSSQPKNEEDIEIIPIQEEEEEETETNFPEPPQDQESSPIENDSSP
Nature of the assay: flow cytometry on 300-19 cells transfected with wild type human CD20.

The target in assay [4] is T1, human CD20. The assay is described as above. This is another data set of the same source.
Assay [5] addresses T1, human CD20. Nature of the assay: flow cytometry on BJAB cells, apparent dissociation constant from the MFI dose-response curve; muCD20-6 on BJAB cells.
Procedure: (§1) Binding specificity was tested by flow cytometry using purified antibodies. […] Then, the cells were pelleted, washed, and incubated for 1 h with 100 μL of FITC-conjugated goat anti-mouse IgG-antibody (such as is obtainable from, for example Jackson Laboratory, 6 μg/mL in FACS buffer). The cells were pelleted again, washed with FACS buffer and resuspended in 200 μL of PBS containing 1% formaldehyde. Samples were acquired using a FACSCalibur flow cytometer with the HTS multiwell sampler or a FACS array flow cytometer and analyzed using CellQuest Pro (all from BD Biosciences, San Diego, US).
(§2) Data analysis was performed using CellQuest Pro (BD Biosciences, San Diego, US) and for each sample the mean fluorescence intensity for FL1 (MFI) was exported and plotted against the antibody concentration in a semi-log plot.
The target of assay [6] is T2, CD20-A170S P172S variant (human, UniProt P11836 1-297).
T2 construct: Stably expressed on 300-19 cells; also called CD20-AP; CD20AP
T2 chain: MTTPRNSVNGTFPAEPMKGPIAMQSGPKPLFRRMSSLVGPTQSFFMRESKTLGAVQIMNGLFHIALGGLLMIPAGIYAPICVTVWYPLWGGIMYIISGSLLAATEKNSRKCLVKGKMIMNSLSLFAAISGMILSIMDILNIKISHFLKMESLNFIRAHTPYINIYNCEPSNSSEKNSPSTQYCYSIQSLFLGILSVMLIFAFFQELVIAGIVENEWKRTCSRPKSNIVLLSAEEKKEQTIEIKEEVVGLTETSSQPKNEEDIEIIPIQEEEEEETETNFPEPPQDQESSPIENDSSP
Nature of the assay: flow cytometry on 300-19 cells transfected with human CD20 A170S P172S.

For assay [7], the target named is T3, CD20 N163D (human, UniProt P11836 1-297).
T3 construct: whole, on cells; Stably expressed on 300-19 cells
T3 sequence (looked up): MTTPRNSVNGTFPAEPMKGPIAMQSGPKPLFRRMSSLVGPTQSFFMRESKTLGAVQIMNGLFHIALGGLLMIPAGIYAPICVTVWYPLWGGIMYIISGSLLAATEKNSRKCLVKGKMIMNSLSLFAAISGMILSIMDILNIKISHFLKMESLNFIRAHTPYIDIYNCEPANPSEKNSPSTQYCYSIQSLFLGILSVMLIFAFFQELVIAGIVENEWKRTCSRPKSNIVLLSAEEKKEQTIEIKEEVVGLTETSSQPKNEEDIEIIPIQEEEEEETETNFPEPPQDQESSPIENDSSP
Nature of the assay: flow cytometry on 300-19 cells transfected with human CD20 N163D.

For assay [8], the target named is T1, human CD20. Nature of the assay: flow cytometry on BJAB cells, apparent Kd.
Procedure: as §1, §2
The value for the apparent dissociation constant (Kd) of each antibody was calculated using GraphPad Prism v4 (GraphPad software, San Diego, Calif.).
The target in assay [9] is T1, human CD20. Nature of the assay: flow cytometry on BJAB cells, apparent dissociation constant from the MFI dose-response curve; muCD20-7 on BJAB cells.
Procedure: as §1, §2
Assay [10] has as its target T4, CD20 N163D N166D (human, UniProt P11836 1-297).
T4 construct: whole, on cells; Stably expressed on 300-19 cells; also called CD20-NNDD
T4 sequence (looked up): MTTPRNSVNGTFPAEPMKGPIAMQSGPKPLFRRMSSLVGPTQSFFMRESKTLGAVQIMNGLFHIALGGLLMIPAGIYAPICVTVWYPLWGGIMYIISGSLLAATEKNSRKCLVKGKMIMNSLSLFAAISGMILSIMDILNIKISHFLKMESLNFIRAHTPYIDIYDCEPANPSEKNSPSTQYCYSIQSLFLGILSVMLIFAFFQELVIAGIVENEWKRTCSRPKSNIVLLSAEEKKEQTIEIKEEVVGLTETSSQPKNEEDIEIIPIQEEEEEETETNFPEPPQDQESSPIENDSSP
Nature of the assay: flow cytometry on 300-19 cells transfected with human CD20 N163D N166D.

Assay [11] concerns the target T1, human CD20. Nature of the assay: flow cytometry on 300-19 cells transfected with wild type human CD20. This is another data set of the same source.

By EC50 (read off the curve) is commonly meant the concentration at which the effect is half-maximal. Read a low EC50 (read off the curve) as a more potent agent. On to rituximab-SMCC-[^3H]DM1 (antibody), for which, in assay [1], the IC50, cell-based viability assay, CD20-positive SU-DHL-4 cells was found to be 0.24 nM. For the same molecule, in [2], the EC50 (read off the curve) turned out to be 1 nM.

In turn, B1 (antibody) had a concentration for a half-maximal effect (EC50 (read off the curve)) in [3] of 0.4 nM. In other words, the sub-nanomolar range.

B1: muCD20-6 (antibody, mouse IgG1, kappa, V domains shown)
VH: QIQLVQSGPELKKPGETVKISCKASGYKFTNVGMNWVKQVPGKGLKWMGWINTYTGEPAYADDFKGRFVFSLETSASAAFLQINNLKNEDTATYFCARGAYYRYDLGMDYWGQGTSVTVSS
VL: DIVLTQSPASLAVSLGQRAIISCRASESVDNFGNSFMHWYQQKPGQPPTLLIYRASNLESGIPARFSGSGSRTDFTLTVNPVEADDIATYYCQQSYEDPFTFGAGTKLELKR
notes: Murine monoclonal antibody purified from hybridoma (ATCC PTA-10486); also called murine CD20-6
Regarding B1, the “EC50 (read off the curve)” value in [4] is about 0.8 nM. For the same molecule, the Kd in assay [5] came to 0.4 nM. Also, the binding result in assay [6] is “binds”; in [7], “no binding (tested: 10^-7.5 M (about 3x10^-8 M))”.

B2: chCD20-7 (antibody, V domains shown)
VH: QLQLVQSGPELKKPGETVKISCKASGYSFTNYGMNWVKQAPGKGLKWMGWINTYTGEPSYADDFKGRFAFSLETSASTAYLQISNLKNEDTATYFCARGAYYRYDLGMDYWGQGTSVTVSS
VL: DIVLTQSPASLAVSLGQRATISCRASGSVDSFGNSFMHWYQQKPGQPPKLLIYRASNLESGVPARFSGGGSRTDFTLTINPVEADDIATYFCQQSYEDPFTFGAGTKLELMR
notes: Chimeric antibody: CD20-7 variable regions cloned into pchCD20-7HCN and pchCD20-7LCZ and expressed in HEK-293T cells; also called chimeric CD20-7
As to B2, the Kd in assay [8] is 0.5 nM.

B3: muCD20-7 (antibody, mouse IgG1, kappa, V domains shown)
VH: QLQLVQSGPELKKPGETVKISCKASGYSFTNYGMNWVKQAPGKGLKWMGWINTYTGEPSYADDFKGRFAFSLETSASTAYLQISNLKNEDTATYFCARGAYYRYDLGMDYWGQGTSVTVSS
VL: DIVLTQSPASLAVSLGQRATISCRASGSVDSFGNSFMHWYQQKPGQPPKLLIYRASNLESGVPARFSGGGSRTDFTLTINPVEADDIATYFCQQSYEDPFTFGAGTKLELMR
notes: Murine monoclonal antibody purified from hybridoma (ATCC PTA-10487); also called murine CD20-7
Consider B3, for which the “EC50 (read off the curve)” value in assay [4] is about 0.5 nM. For the same molecule, the binding result is recorded as “binds” in assay [6], “no binding (tested: 10^-7.5 M (about 3x10^-8 M))” in assay [7] and “no binding (tested: 10^-7.5 M (about 3x10^-8 M))” in assay [10]. Moreover, the results for the Kd in assay [9] and in assay [8] were 0.3 nM and 0.4 nM, respectively.

B4: rituximab (antibody, V domains shown)
VH: QVQLQQPGAELVKPGASVKMSCKASGYTFTSYNMHWVKQTPGRGLEWIGAIYPGNGDTSYNQKFKGKATLTADKSSSTAYMQLSSLTSEDSAVYYCARSTYYGGDWYFNVWGAGTTVTVSA
VL: QIVLSQSPAILSASPGEKVTMTCRASSSVSYIHWFQQKPGSSPKPWIYATSNLASGVPVRFSGSGSGTSYSLTISRVEAEDAATYYCQQWTSNPPTFGGGTKLEIK
For B4, in assay [11], the “EC50 (read off the curve)” value is about 0.5 nM.
